Target: T1, CasEnd-36 (synthetic construct)
T1 chain: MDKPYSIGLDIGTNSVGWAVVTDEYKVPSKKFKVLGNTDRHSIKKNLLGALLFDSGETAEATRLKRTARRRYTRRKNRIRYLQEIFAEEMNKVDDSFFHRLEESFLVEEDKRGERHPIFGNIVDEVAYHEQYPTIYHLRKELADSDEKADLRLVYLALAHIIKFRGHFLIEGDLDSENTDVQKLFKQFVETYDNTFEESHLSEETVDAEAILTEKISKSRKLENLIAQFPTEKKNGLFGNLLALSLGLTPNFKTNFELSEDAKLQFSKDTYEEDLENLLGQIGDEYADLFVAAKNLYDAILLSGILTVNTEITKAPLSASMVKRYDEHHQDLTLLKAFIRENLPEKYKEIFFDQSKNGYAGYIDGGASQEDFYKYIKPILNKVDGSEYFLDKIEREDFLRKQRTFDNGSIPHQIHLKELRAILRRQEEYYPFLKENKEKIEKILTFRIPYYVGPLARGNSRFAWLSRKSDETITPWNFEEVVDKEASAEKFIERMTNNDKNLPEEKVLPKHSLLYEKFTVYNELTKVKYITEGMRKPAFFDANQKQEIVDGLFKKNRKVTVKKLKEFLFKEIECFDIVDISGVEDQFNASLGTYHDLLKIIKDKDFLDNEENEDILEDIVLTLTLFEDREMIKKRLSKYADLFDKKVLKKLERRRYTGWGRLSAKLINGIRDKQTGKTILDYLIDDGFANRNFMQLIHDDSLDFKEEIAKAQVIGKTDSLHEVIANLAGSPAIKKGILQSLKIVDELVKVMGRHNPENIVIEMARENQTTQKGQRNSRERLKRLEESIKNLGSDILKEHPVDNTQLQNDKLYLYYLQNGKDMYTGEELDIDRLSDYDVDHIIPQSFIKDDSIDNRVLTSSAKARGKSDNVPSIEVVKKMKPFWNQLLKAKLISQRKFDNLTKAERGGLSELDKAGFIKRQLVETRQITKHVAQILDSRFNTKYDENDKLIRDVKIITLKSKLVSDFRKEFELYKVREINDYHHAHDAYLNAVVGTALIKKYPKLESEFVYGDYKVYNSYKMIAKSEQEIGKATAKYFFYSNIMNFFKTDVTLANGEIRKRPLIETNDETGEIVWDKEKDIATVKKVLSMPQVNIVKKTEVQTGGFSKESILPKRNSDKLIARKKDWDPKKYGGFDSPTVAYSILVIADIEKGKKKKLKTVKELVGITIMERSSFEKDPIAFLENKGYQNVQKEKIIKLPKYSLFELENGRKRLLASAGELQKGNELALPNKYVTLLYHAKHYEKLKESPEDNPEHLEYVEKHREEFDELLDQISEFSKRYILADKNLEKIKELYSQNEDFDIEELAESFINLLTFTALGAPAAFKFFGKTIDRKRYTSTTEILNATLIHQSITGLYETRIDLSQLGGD
Assay: cell_activity; +++; HEK293T; PAM not stated
Method in brief: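 BFP-to-GFP conversion via reverse transcriptase fusion with each Cas endonuclease plus template RNA: 200 ng of each plasmid nucleofected into 250,000 BFP-expressing HEK293T cells (program DS-150). Percent GFP+ cells by flow cytometry at day 4 measured editing.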

B1: BFP-to-GFP template RNA ; BFP reporter protospacer (ssRNA ; dsDNA)
RNA: GCCGAAGCACUGCACGCCGUGUUUUAGAGCUAGAAAUAGCAAGUUAAAAUAAGGCUAGUCCGUUAUCAACUUGAAAAAGUGGCACCGAGUCGGUGCACCCUGACGUACGGCGUGCAGUGCUU
DNA 1: GCCGAAGCACTGCACGCCGT
DNA 2: ACGGCGTGCAGTGCTTCGGC
In the case of B1, the activity is reported as ≥ 100 % of reference.

Reference: patent US20250092426, “CAS ENDONUCLEASES AND RELATED METHODS” (Flagship Pioneering Innovations VII, LLC, published 2025)
